Publication PMC9000958, “Sticks and Stones, a conserved cell surface ligand for the Type IIa RPTP Lar, regulates neural circuit wiring in Drosophila” (eLife, 2022)
Values belong to the molecule of their own block, whether it stands above or below them.

Key:
[1] = biological target: Sticks and Stones (Sns), ectopically expressed in Tub>Sns embryos (Drosophila); assay: immunostaining of cells or tissue; live-dissected stage 16 embryos (WT or Tub-GAL4 overexpression) incubated 2 hr at room temperature with AP or AP5 fusion protein supernatants (1x or concentrated), fixed in 4% paraformaldehyde, detected with anti-AP antibody; staining intensity compared with WT embryos
[2] = biological target: Nephrin or Sns (expressed in Tub>NPHS1 or Tub>Sns embryos); assay: as above
[3] = biological target: Lar-Fc fusion protein (Drosophila) (UniProt P16621); assay: ELISA; ECIA: Fc fusion bait (1x supernatant) captured by anti-human IgG (Fc-specific) on plate; AP5 fusion prey (1x supernatant) pre-clustered with anti-AP:biotin, overnight at room temperature; streptavidin:HRP, TMB, absorbance at 450 nm
[4] = biological target: Lar, ectopically expressed in Tub>Lar embryos (Drosophila) (UniProt P16621); assay: immunostaining of cells or tissue; live-dissected stage 16 embryos (WT or Tub-GAL4 overexpression) incubated 2 hr at room temperature with AP or AP5 fusion protein supernatants (1x or concentrated), fixed in 4% paraformaldehyde, detected with anti-AP antibody; staining intensity compared with WT embryos
[5] = biological target: T1, human Nephrin, ectopically expressed in Tub>NPHS1 embryos (human, UniProt O60500 23-1241); assay: as above; conditions: partners not purified
T1 construct: source: Drosophila embryos, UAS-linked full-length human Nephrin cDNA driven by Tub-GAL4, live-dissected stage 16
T1 sequence (looked up): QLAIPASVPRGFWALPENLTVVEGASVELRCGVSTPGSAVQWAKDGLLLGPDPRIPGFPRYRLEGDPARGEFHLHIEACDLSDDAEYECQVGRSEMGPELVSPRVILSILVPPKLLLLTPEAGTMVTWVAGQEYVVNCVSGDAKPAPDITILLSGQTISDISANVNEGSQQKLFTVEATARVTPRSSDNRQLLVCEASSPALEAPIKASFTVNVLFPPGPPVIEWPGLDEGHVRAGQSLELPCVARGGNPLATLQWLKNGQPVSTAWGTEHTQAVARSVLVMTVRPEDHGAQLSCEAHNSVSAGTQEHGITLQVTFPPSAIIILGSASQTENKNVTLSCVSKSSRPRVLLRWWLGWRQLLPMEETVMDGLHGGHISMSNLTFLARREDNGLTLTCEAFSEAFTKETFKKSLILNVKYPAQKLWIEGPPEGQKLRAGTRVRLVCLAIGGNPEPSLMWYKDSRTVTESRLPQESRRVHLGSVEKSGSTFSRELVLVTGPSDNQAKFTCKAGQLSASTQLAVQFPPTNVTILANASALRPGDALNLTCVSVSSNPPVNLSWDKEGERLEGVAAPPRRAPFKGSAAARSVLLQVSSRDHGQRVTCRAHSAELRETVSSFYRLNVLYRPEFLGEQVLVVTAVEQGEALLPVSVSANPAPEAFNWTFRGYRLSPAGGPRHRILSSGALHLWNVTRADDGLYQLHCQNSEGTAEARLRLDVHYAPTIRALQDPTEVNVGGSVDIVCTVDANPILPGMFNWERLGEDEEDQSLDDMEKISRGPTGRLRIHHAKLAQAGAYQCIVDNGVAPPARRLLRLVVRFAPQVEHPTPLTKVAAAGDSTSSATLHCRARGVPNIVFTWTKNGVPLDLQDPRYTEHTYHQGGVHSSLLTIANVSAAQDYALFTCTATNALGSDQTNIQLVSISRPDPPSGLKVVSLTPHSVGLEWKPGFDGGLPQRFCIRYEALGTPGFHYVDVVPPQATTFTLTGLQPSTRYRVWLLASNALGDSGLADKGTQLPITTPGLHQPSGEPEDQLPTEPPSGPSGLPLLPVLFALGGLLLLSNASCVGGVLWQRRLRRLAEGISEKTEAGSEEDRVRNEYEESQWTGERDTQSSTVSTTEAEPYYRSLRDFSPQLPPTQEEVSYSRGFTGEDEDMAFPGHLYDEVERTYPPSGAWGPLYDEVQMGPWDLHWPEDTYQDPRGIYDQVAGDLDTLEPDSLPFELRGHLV

[6] = biological target: Sns-AP5 fusion protein (Drosophila); assay: ELISA; ECIA with mi3 particles: AP5 bait (10 ng/ul) on streptavidin-coated plate; mi3 particles or Fc fusion proteins as prey at 10 ng/ul or 1x, overnight at room temperature; detected with anti-LAR or anti-human IgG (Fc) and anti-mouse:AP, BluePhos, absorbance at 650 nm; mi3 preys were purified, purification of bait not told

fold increase in staining vs. WT embryos [5]: 3 fold
B1: PTPRD-AP5 fusion protein (domain or fragment, human, UniProt P23468 21-1265, looked up)
chain: ETPPRFTRTPVDQTGVSGGVASFICQATGDPRPKIVWNKKGKKVSNQRFEVIEFDDGSGSVLRIQPLRTPRDEAIYECVASNNVGEISVSTRLTVLREDQIPRGFPTIDMGPQLKVVERTRTATMLCAASGNPDPEITWFKDFLPVDTSNNNGRIKQLRSESIGGTPIRGALQIEQSEESDQGKYECVATNSAGTRYSAPANLYVRELREVRRVPPRFSIPPTNHEIMPGGSVNITCVAVGSPMPYVKWMLGAEDLTPEDDMPIGRNVLELNDVRQSANYTCVAMSTLGVIEAIAQITVKALPKPPGTPVVTESTATSITLTWDSGNPEPVSYYIIQHKPKNSEELYKEIDGVATTRYSVAGLSPYSDYEFRVVAVNNIGRGPPSEPVLTQTSEQAPSSAPRDVQARMLSSTTILVQWKEPEEPNGQIQGYRVYYTMDPTQHVNNWMKHNVADSQITTIGNLVPQKTYSVKVLAFTSIGDGPLSSDIQVITQTGVPGQPLNFKAEPESETSILLSWTPPRSDTIANYELVYKDGEHGEEQRITIEPGTSYRLQGLKPNSLYYFRLAARSPQGLGASTAEISARTMQSKPSAPPQDISCTSPSSTSILVSWQPPPVEKQNGIITEYSIKYTAVDGEDDKPHEILGIPSDTTKYLLEQLEKWTEYRITVTAHTDVGPGPESLSVLIRTNEDVPSGPPRKVEVEAVNSTSVKVSWRSPVPNKQHGQIRGYQVHYVRMENGEPKGQPMLKDVMLADAQWEFDDTTEHDMIISGLQPETSYSLTVTAYTTKGDGARSKPKLVSTTGAVPGKPRLVINHTQMNTALIQWHPPVDTFGPLQGYRLKFGRKDMEPLTTLEFSEKEDHFTATDIHKGASYVFRLSARNKVGFGEEMVKEISIPEEVPTGFPQNLHSEGTTSTSVQLSWQPPVLAERNGIITKYTLLYRDINIPLLPMEQLIVPADTTMTLTGLKPDTTYDVKVRAHTSKGPGPYSPSVQFRTLPVDQVFAKNFHVKAVMKTSVLLSWEIPENYNSAMPFKILYDDGKMVEEVDGRATQKLIVNLKPEKSYSFVLTNRGNSAGGLQHRVTAKTAPDVLRTKPAFIGKTNLDGMITVQLPEVPANENIKGYYIIIVPLKKSRGKFIKPWESPDEMELDELLKEISRKRRSIRYGREVELKPYIAAHFDVLPTEFTLGDDKHYGGFTNKQLQSGQEYVFFVLAVMEHAESKMYATSPYSDPVVSMDLDPQPITDEEE
notes: human PTPRD extracellular domain, amplified from a full-length cDNA; also called PTPδ; source: Drosophila S2 cells, transfected, supernatant

fold increase in binding signal [6]: 7 fold
fold weaker binding signal than Kirre on Sns-AP5 [6]: 2 fold
B2: 60-mer Lar particles on the mi3 nanoparticle scaffold (Fc fusion)
chain: AHPPEIIRKPQNQGVRVGGVASFYCAARGDPPPSIVWRKNGKKVSGTQSRYTVLEQPGGISILRIEPVRAGRDDAPYECVAENGVGDAVSADATLTIYEGDKTPAGFPVITQGPGTRVIEVGHTVLMTCKAIGNPTPNIYWIKNQTKVDMSNPRYSLKDGFLQIENSREEDQGKYECVAENSMGTEHSKATNLYVKVRRVPPTFSRPPETISEVMLGSNLNLSCIAVGSPMPHVKWMKGSEDLTPENEMPIGRNVLQLINIQESANYTCIAASTLGQIDSVSVVKVQSLPTAPTDVQISEVTATSVRLEWSYKGPEDLQYYVIQYKPKNANQAFSEISGIITMYYVVRALSPYTEYEFYVIAVNNIGRGPPSAPATCTTGETKMESAPRNVQVRTLSSSTMVITWEPPETPNGQVTGYKVYYTTNSNQPEASWNSQMVDNSELTTVSELTPHAIYTVRVQAYTSMGAGPMSTPVQVKAQQGVPSQPSNFRATDIGETAVTLQWTKPTHSSENIVHYELYWNDTYANQAHHKRISNSEAYTLDGLYPDTLYYIWLAARSQRGEGATTPPIPVRTKQYVPGAPPRNITAIATSSTTISLSWLPPPVERSNGRIIYYKVFFVEVGREDDEATTMTLNMTSIVLDELKRWTEYKIWVLAGTSVGDGPRSHPIILRTQEDVPGDPQDVKATPLNSTSIHVSWKPPLEKDRNGIIRGYHIHAQELRDEGKGFLNEPFKFDVVDTLEFNVTGLQPDTKYSIQVAALTRKGDGDRSAAIVVKTPGGVPVRPTVSLKIMEREPIVSIELEWERPAQTYGELRGYRLRWGVKDQALKEEMLSGPQMTKKRFDNLERGVEYEFRVAGSNHIGIGQETVKIFQTPEGTPGGPPSNITIRFQTPDVLCVTWDPPTREHRNGIITRYDVQFHKKIDHGLGSERNMTLRKAVFTNLEENTEYIFRVRAYTKQGAGPFSDKLIVETERDMGRAPMSLQAEATSEQTAEIWWEPVTSRGKLLGYKIFYTMTAVEDLDDWQTKTVGLTESADLVNLEKFAQYAVAIAARFKNGLGRLSEKVTVRIKPEDVPLNLRAHDVSTHSMTLSWSPPIRLTPVNYKISFDAMKVFVDSQGFSQTQIVPKREIILKHYVKTHTINELSPFTTYNVNVSAIPSDYSYRPPTKITVTTQMAAPQPMVKPDFYGVVNGEEILVILPQASEEYGPISHYYLVVVPEDKSNLHKIPDQFLTDDLLPGRNKPERPNAPYIAAKFPQRSIPFTFHLGSGDDYHNFTNRKLEREKRYRIFVRAVVDTPQKHLYTSSPFSEFLSLDMREAPPGERPHRPDPNWPAEPEVSVNRNKDEPE

Further lines, the molecule ahead of its results:

Molecule: Lar^HS2-alkaline phosphatase fusion protein (from UniProt P16621 33-1377) (domain or fragment)
fold increase in staining vs. WT embryos [1]: > 10 fold

Molecule: PTPRF-AP5 fusion protein (from UniProt P10586 30-1263) (domain or fragment)
fold increase in staining vs. WT embryos [2]: 18 to 20 fold

Molecule: Sns-AP5 fusion protein (domain or fragment)
fold higher binding signal [3]: 3 fold
fold increase in staining vs. WT embryos [4]: 3 fold
